According to patent US8624002B2, “Prostaglandin E2 binding proteins and uses thereof” (AbbVie, Inc., priority 2008, dated 2014):
“And” between values parts separate entries of the source, which are not always exact repeats. Equal values may be shown once.

Assays:
[1] = Pharmacokinetics of 2B5.8.0 in Sprague-Dawley rats; format: in vivo; conditions: rat, IV 4 mg/kg
Description: Pharmacokinetic studies with mouse mAb 2B5.8.0 were carried out in Sprague Dawley rats and Balb/C mice. Male and female rats and mice were dosed intravenously or intraperitoneally (mice only) with a single dose of 4 mg/kg 2B5.8.0 and serum samples were analyzed using antigen capture based chemiluminescent MSD (Meso Scale Discovery) method (Meso Scale Discovery, Gaithersburg, Md.). Pharmacokinetic parameters were calculated by non-compartmental analysis using WinNonlin.
The following MSD assay was used to measure antibody concentration in rat and mouse serum. MSD streptavidin plates (Meso Scale Discovery, Gaithersburg, Md.) were washed with phosphate buffered saline containing 0.05% Tween-20 (Sigma, St. Louis, Mo.). Plates were blocked with 250 μL/well blocking solution (MSD Block, Meso Scale Discovery, diluted to 3% final concentration in PBS) for 1 hour, covered, with shaking (600 rpm) at room temperature. After washing, 70 μL of biotinylated PGE2 (Prostoglandin E2-biotinamide, Cayman Chemical, Ann Arbor, Mich., cat# 10006987, lot# 190831-191028, 0.01 ug/mL in assay buffer) was added to each well. The plates were covered and incubated with shaking (600 rpm) for 1 hour at room temperature
Prior to analysis, rat and mouse serum samples were thawed on ice, mixed gently, and centrifuged at 14,000 rpm for 3 minutes at 4° C. in an eppendorf centrifuge. Standard curve and control samples were prepared in rat and mouse serum. A Tecan Evo automated liquid handling station was used to dilute standard curve, high, medium, and low controls, and serum samples in assay buffer, keeping 1% final serum concentration constant. MSD plates were washed again and study samples, standard curve samples and blanks, as well as high, medium, and low controls were added (70 μL/well). The plates were covered, and incubated for 1 hour with shaking (600 rpm) at room temperature.
After incubation, the MSD plates were washed, and 70 μL of sulfo-tagged goat anti-mouse IgG (Meso Scale Discovery; diluted to 1 ug/mL in assay buffer) was added to each well. The MSD plates were covered, and incubated with shaking (600 rpm) for 1 hour at room temperature, then the plates were washed and developed with 2× Read Buffer (Meso Scale Discovery). Chemilumeniscence was measured within ten minutes on the MSD Sector Imager 6000.
Standard curves were analyzed using four-parameter logistic fit and sample concentrations were calculated by XLfit4 software version 2.2.1 Build 16, ([…].). Pharmacokinetic parameters were calculated for each animal using Winonlin software version 5.0.1 (Pharsight Corporation, Mountain View, Calif.) by noncompartmental analysis.
Surgically altered jugular vein cannulated, JVC) and regular male and female Sprague-Dawley Rats (approximately seven weeks old, weighing 240-390 grams) were purchased from Charles River Laboratories (Wilmington, Mass.). The animals were housed in rooms maintained at constant temperature and humidity under 12 hours light/dark cycle, fed with normal rodent chow and were allowed food and water ad libitum. Hydration and clinical conditions of the animals were monitored daily.
Male and female Balb/c mice (weighing approximately 0.025 kg) were purchased from Charles River Laboratories (Wilmington, Mass.). The animals were allowed food and water ad libitum. Blood samples were collected (0.2 mL from the rats via the tail vein and by cardiac puncture from the mice) at various timepoints (5 mice at each timepoint) allowed to clot for 30 minutes at room temperature, centrifuged for 3 minutes at 13,200 rpm, the serum transferred to eppendorf tubes and stored frozen at −80° C.

[2] = system: mouse collagen-induced arthritis; assay: Collagen-induced arthritis; format: in vivo, DBA/J mice; conditions: 8 mg/kg, 2×/week, i.p.
Description: Type II bovine collagen (lyophilized) was obtained from the University of Utah (Salt Lake City, Utah). Male DBA/J mice (8-10-week-old, Jackson Laboratories, Bar Harbor, Me.) were immunized intradermally at the base of the tail with 100 μL of emulsion containing 100 μg of type II bovine collagen dissolved in 0.1 N of acetic acid and 100 μg of heat-inactivated Mycobacterium tuberculosis H37Ra (Complete Freund's Adjuvant, Difco, Laurence, Kans.). Twenty-one days after immunization with collagen, mice were boosted IP with 1 mg of Zymosan A (Sigma, St. Louis, Mo.). Following the boost, mice were monitored daily for arthritis. Each paw was scored by the following criteria: 0=normal; 1=swelling in one site, foot, or ankle; 2=swelling in foot and ankle; and 3=ankylosis. Scores were summed for each animal, and total average of all animals in each group was expressed as MAS. In addition to clinical scores, mice were also evaluated for paw-edema using Dyer spring calipers model #310-119. […]
Micro-computed tomography was performed on a Scanco μCT-40 unit (Scanco Medical AG) at 60 kVp at 160 μA. The hind paws (stored in 70% ethanol) were secured in imaging tubes and the tarsal bone volume was measured for a 1.8-mm section of the mouse ankle from the base of the tibia to the tarsal/metatarsal joint at a resolution of 18 μm. The raw micro-computed tomography image was then analyzed using the Scanco AG μCT Evaluation program.
For histopathology analysis, formalin-fixed paws were sectioned and stained with Gills 3 hematoxylin (Richard-Allan Scientific, Kalamazoo, Mich.) and eosin with phloxine (Newcomer Supply, Middleton, Mich.). Severity of disease was evaluated histologically using the following criteria: 0=normal; 1=minimal change; 2=mild change; 3=moderate change; and 4=severe change. Scores were summed for each animal, and the total was expressed as an average of all animals in each group.
The therapeutic effects of anti-PGE2 alone was evaluated in mouse (male DBA/1J) collagen-induced arthritis, a standard preclinical model for human rheumatoid arthritis. […]

B1: 2B5-8.0: recombinant anti-PGE2 antibody from solved 2B5 sequence; VH SEQ ID NO 42, VL SEQ ID NO 43 (antibody, V domains shown)
VH: QVQLQQSGPELVRPGSSVKISCKASGYTFTKYWLGWVKQRPGHGLEWIGDIYPGYDYTHYNEKFKDKATLTVDTSSSTAYMQLSSLTSEDSAIYYCARSDGSSTYWGQGTLVTVSA
VL: DVLMTQTPLSLPVSLGDQASISCTSSQNIVHSNGNTYLEWYLQRPGQSPKLLIYKVSNRFSGVPDRFSGSGSGTVFTLKISRVEAEDLGVYYCFQVSHVPYTFGGGTKLEIKR
For B1, the “AUC0-∞” value ([1]; female) was 12000 ± 4600 µg·h/mL, the “CL” value ([1]; female) was 8.88 ± 3.12 mL/day/kg and the “MRT” value ([1]; female) was 259 ± 84 h. For the same molecule, the “Vss” value ([1]; female) was 0.088 ± 0.0062 L/kg, the “Vz” value ([1]; female) was 0.101 ± 0.0131 L/kg and the “T½” value ([1]; female, 4 mg/kg) was 214 h and 204 ± 52.8 h. For the same molecule, the “AUC0-∞” value ([1]; male) was 9900 ± 700 µg·h/mL, the “CL” value ([1]; male) was 9.84 ± 0.72 mL/day/kg and the “MRT” value ([1]; male) was 302 ± 38.4 h. The “T½” value ([1]; male) was 218 h, the “Vss” value ([1]; male) was 0.122 ± 0.0185 L/kg and the “Vz” value ([1]; male) was 0.127 ± 0.0189 L/kg. The “Paw Swelling (AUC) (mm # days)” value [2] was 8.4 ± 1.3 mm # days, the “Bone Volume (mm^3)” value ([2]; micro CT tarsal bone volume) was 1.6 ± 0.1 mm^3 and the “MAS (AUC) (Score # days)” value ([2]; treatment after disease onset) was 57.4 ± 6.7 Score # days.
